Molecular target: Recombinant blood coagulation factor VIII (human)
Conditions: scale: times higher molar excess over FVIII

B1: Thrombin-cleaved iKM33-v2 (mixture of dissociated VH and VL) (protein)
VH: EVQLVESGGGVVQPGRSLRLSCVDSGLTFSSYGMHWVRQAPGAGLEWVAVISYDGNDKYYADSVKGRFAISRDNAKNTLYLQMNSLTIEDTAVYYCAKDLIESNIAEAFWGQGTLVTVSS
VL: DIQMTQSPSSLSASVGDTVTIACRASRDIRNDLAWYQQKPGKAPKLLIYATSRLQSGVPSRFSGSGSFTDFTLTINSLQPDDSATYYCLQDSDYPLTFGGGTKVDIK
- FVIII activity in the chromogenic substrate (CS) assay; thrombin-cleaved scFv 1000 to 0.24 nM with 145 pM FVIII; molar excess needed for the same inhibition as the non-cleaved scFv: 100
